This passage reports Kd results from patent US5674833.

This assay has as its target Alcalase® (Bacillus) (UniProt P00780). As to the kind of experiment: titration of Alcalase with inhibitor, residual activity on synthetic peptide substrates, non-linear regression; 0.1M Tris-HCl pH 8.6, 25 C.
Turning to CI-2(M59P), the Kd (commonly the equilibrium constant for the complex coming apart) was 5 nM.
CI-2(V57E) gave a Kd of 0.1 nM.
The value for “Wild-type barley subtilisin inhibitor CI-2” was 0.004 nM.
